Target: T1, rat GLP-1 receptor (CHO cells transfected with the rat GLP-1 receptor) (rat, UniProt P32301 22-463)
T1 sequence (looked up): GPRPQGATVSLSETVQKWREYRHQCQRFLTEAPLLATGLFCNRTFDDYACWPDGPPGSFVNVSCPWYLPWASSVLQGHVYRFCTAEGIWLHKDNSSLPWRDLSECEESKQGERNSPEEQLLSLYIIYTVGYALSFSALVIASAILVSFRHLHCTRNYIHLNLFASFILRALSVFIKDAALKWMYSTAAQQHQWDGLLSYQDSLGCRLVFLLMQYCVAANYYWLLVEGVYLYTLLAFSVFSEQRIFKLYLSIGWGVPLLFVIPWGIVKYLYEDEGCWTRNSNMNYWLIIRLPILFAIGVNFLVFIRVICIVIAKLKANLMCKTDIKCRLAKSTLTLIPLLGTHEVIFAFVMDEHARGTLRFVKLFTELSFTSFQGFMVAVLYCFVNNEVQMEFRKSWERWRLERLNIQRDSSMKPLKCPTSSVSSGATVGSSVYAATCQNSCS
Assay: cell-based or functional assay

cAMP assay EC50 (fermentation F0191): 5.9 nM
B1: pREX0558: GLP-1 (7-37;A8G;G22E;K34A) fused to the N-terminus of transferrin with PEAPTD and IgG hinge linkers (other)
chain: HGEGTFTSDVSSYLEEQAAKEFIAWLVAGRGPEAPTDVEPKSSDKTHTSPPSPAPELLGGPSVPDKTVRWCAVSEHEATKCQSFRDHMKSVIPSDGPSVACVKKASYLDCIRAIAANEADAVTLDAGLVYDAYLAPNNLKPVVAEFYGSKEDPQTFYYAVAVVKKDSGFQMNQLRGKKSCHTGLGRSAGWNIPIGLLYCDLPEPRKPLEKAVANFFSGSCAPCADGTDFPQLCQLCPGCGCSTLNQYFGYSGAFKCLKDGAGDVAFVKHSTIFENLANKADRDQYELLCLDNTRKPVDEYKDCHLAQVPSHTVVARSMGGKEDLIWELLNQAQEHFGKDKSKEFQLFSSPHGKDLLFKDSAHGFLKVPPRMDAKMYLGYEYVTAIRNLREGTCPEAPTDECKPVKWCALSHHERLKCDEWSVNSVGKIECVSAETTEDCIAKIMNGEADAMSLDGGFVYIAGKCGLVPVLAENYNKADNCEDTPEAGYFAVAVVKKSASDLTWDNLKGKKSCHTAVGRTAGWNIPMGLLYNKINHCRFDEFFSEGCAPGSKKDSSLCKLCMGSGLNLCEPNNKEGYYGYTGAFRCLVEKGDVAFVKHQTVPQNTGGKNPDPWAKNLNEKDYELLCLDGTRKPVEEYANCHLARAPNHAVVTRKDKEACVHKILRQQQHLFGSNVADCSGNFCLFRSETKDLLFRDDTVCLAKLHDRNTYEKYLGEEYVKAVGNLRKCSTSSLLEACTFRRP

Reference: patent US20060205037A1 (published 2006)
